Measurements: the supplement of paper PMC7125110
± gives the standard error. For part of these data: Fewer inactive variants are shown than the library holds.

B1: glmS ribozyme (parent)
chain: AUAAAAGCGCCAGAACUACAGAAAUGUAGUUGACGAGGAGGAGGUUUAUCGAAUUUUCGGCGGAUGCCUCCAAA

How the values were obtained:
Conditions in all cases: with glucosamine-6-phosphate
[1] = variants of: B1; assay: kcat; higher = faster cleavage; RNA array
In short: (§1)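 kcat and KM were obtained from weighted Michaelis–Menten fits across concentrations of kobs values. Those came from one- or two-exponential decay fits to per-tile medians normalised to baseline and to non-cleaving reference variants. The variants were barcoded ribozymes transcribed in situ by E. coli RNA polymerase on sequenced MiSeq chips and tracked through a hybridised Cy3 probe at 37 °C, with 40 μM to 10 mM glucosamine-6-phosphate in HEPES/KCl/Mg(OAc)2 buffer flowed in.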

[2] = variants of: B1; assay: KM; higher = weaker cofactor use; RNA array
In short: as §1

[3] = variants of: B1; assay: self-cleavage kobs at 640 uM GlcN6P; higher = faster cleavage; RNA array
In short: as §1

[4] = variants of: B1; assay: self-cleavage kobs at 2500 uM GlcN6P; higher = faster cleavage; RNA array
In short: as §1

[5] = variants of: B1; assay: self-cleavage kobs at 10000 uM GlcN6P; higher = faster cleavage; RNA array
In short: as §1

[6] = variants of: B1; assay: self-cleavage kobs at 40 uM GlcN6P; higher = faster cleavage; RNA array
In short: as §1

[7] = variants of: B1; assay: self-cleavage kobs at 160 uM GlcN6P; higher = faster cleavage; RNA array
In short: as §1

Variant | kcat [1] [s⁻¹] | KM [2] [µM] | self-cleavage kobs at 640 uM GlcN6P [3] [s⁻¹] | self-cleavage kobs at 2500 uM GlcN6P [4] [s⁻¹] | self-cleavage kobs at 10000 uM GlcN6P [5] [s⁻¹] | self-cleavage kobs at 40 uM GlcN6P [6] [s⁻¹] | self-cleavage kobs at 160 uM GlcN6P [7] [s⁻¹]
G13C U31A | 0.000405 ± 2e-05 | 3100 ± 280 | 7.16e-05 ± 1.3e-05 | 0.00017 ± 3.3e-05 | 0.000314 ± 4.2e-05 |  | 
G13A U55G C71G | 4.93e-05 ± 1.6e-05 |  |  | 7.49e-05 ± 2.8e-05 | 4.08e-05 ± 1.6e-05 | < 1e-05 | 
A14G U56C | 0.021 ± 0.0052 | 3490 ± 1200 | 0.0033 ± 0.00071 | 0.0088 ± 0.0011 | 0.0157 ± 0.0028 | 0.000291 ± 4.2e-05 | 0.000647 ± 0.00018
A14C C70A | 0.000106 ± 1.1e-05 | 413 ± 170 | 5.59e-05 ± 6.8e-06 | 9.55e-05 ± 8e-06 | 0.000102 ± 9.4e-06 |  | 4.49e-05 ± 9.3e-06
A14G U55C | 0.0632 ± 0.029 |  | 0.0382 ± 0.012 |  | 0.0522 ± 0.015 | 0.00179 ± 0.00021 | 0.00449 ± 0.00098
G13C A53G | 0.000174 ± 2.8e-05 | 3550 ± 1100 | 2.97e-05 ± 9e-06 | 7.05e-05 ± 7.7e-06 | 0.00013 ± 1.9e-05 |  | 
A14C G40C | 0.000718 ± 6.3e-05 | 3650 ± 530 | 0.000114 ± 1.8e-05 | 0.000285 ± 3.3e-05 | 0.000533 ± 7.6e-05 |  | 2.58e-05 ± 1.1e-05
G13C C67G | 1.33e-05 ± 8.3e-07 | 189 ± 76 |  |  |  |  | 
G13U G38C | < 1e-05 |  | < 1e-05 |  | < 1e-05 |  | 
G13C G66U | < 1e-05 | 766 ± 350 |  |  |  |  | < 1e-05
A14C A53G | 0.00897 ± 0.0044 |  | 0.00116 ± 0.00015 | 0.0024 ± 0.00037 | 0.00721 ± 0.001 | 0.00012 ± 1.8e-05 | 0.000245 ± 3.7e-05
G13C C16U | 0.0002194 ± 1.1e-06 | 4190 ± 58 |  | 8.19e-05 ± 2.5e-05 | 0.000155 ± 1.9e-05 |  | 
A14C A33U | 3.55e-05 ± 2.4e-06 | 994 ± 450 |  |  | 3.21e-05 ± 7.6e-06 |  | 
A14G C70U | 0.0485 ± 0.02 | 1020 ± 470 | 0.0183 ± 0.0066 |  |  | 0.00188 ± 0.00021 | 0.00502 ± 0.002
A14G C70A | 0.000511 ± 0.0001 | 256 ± 76 | 0.000328 ± 4.7e-05 | 0.000484 ± 8.1e-05 |  | 6.67e-05 ± 5.7e-06 | 0.000287 ± 4.4e-05
G13U C50G | 4.84e-05 ± 1.3e-05 |  | 6.9e-05 ± 1.6e-05 | 5.61e-05 ± 1.2e-05 | 2.19e-05 ± 1.1e-05 | 4.61e-05 ± 1.2e-05 | 8.07e-05 ± 1.7e-05
A14G G60A C70G | 1.55e-05 ± 4e-06 |  |  |  |  | < 1e-05 | 

Variant | kcat [1] [s⁻¹] | KM [2] [µM] | self-cleavage kobs at 640 uM GlcN6P [3] [s⁻¹] | self-cleavage kobs at 2500 uM GlcN6P [4] [s⁻¹] | self-cleavage kobs at 10000 uM GlcN6P [5] [s⁻¹] | self-cleavage kobs at 40 uM GlcN6P [6] [s⁻¹] | self-cleavage kobs at 160 uM GlcN6P [7] [s⁻¹]
A14G A42C | 3.47e-05 ± 2.4e-06 | 1730 ± 410 |  | 1.97e-05 ± 9.6e-06 | 2.99e-05 ± 1e-05 |  | 
G13U U45A | 0.00214 ± 0.00039 | 2010 ± 490 | 0.000543 ± 0.00015 | 0.00117 ± 0.00036 |  | 4.66e-05 ± 2.1e-05 | 0.000142 ± 5.1e-05
G13U A14U | 0.000743 ± 0.00015 | 2270 ± 1000 | 0.000174 ± 3.7e-05 | 0.000331 ± 4.6e-05 | 0.00066 ± 7.3e-05 |  | 8.56e-05 ± 2.3e-05
A14G U30C | 0.00152 ± 0.00022 | 1880 ± 500 | 0.000552 ± 0.00011 | 0.000958 ± 0.00012 | 0.00122 ± 0.00013 | 3.48e-05 ± 8e-06 | 9.58e-05 ± 1.9e-05
A14C U69G | 4.01e-05 ± 6.9e-06 |  | 5.28e-05 ± 2.2e-05 | 4.06e-05 ± 9.1e-06 | 3.03e-05 ± 1.2e-05 |  | 6.28e-05 ± 2.1e-05
G13C C70U | 0.000154 ± 4.9e-06 | 1400 ± 140 | 4.57e-05 ± 8.9e-06 | 0.000103 ± 1.2e-05 | 0.000134 ± 1e-05 |  | 
G13C C70A | 1.11e-05 ± 3.3e-06 |  |  |  |  |  | 
A14G G29U U47G C70G | 8.6e-05 ± 1.6e-05 |  | 0.000119 ± 3.1e-05 | 6.72e-05 ± 1.5e-05 | 0.000118 ± 2.8e-05 |  | 
A14G A33C | 0.000125 ± 5.4e-06 | 1470 ± 220 | 3.41e-05 ± 1.4e-05 | 8.25e-05 ± 1.2e-05 | 0.000108 ± 1.2e-05 |  | 
A14C G41U | 0.000291 ± 6.9e-05 |  | 0.000102 ± 1.6e-05 | 0.000161 ± 2.2e-05 | 0.000272 ± 4.2e-05 |  | 
G13U U46G | 0.000174 ± 4.9e-06 | 1460 ± 120 | 5.44e-05 ± 1.5e-05 | 0.000107 ± 2.4e-05 | 0.000153 ± 2.1e-05 |  | 
G13C A52G | 1.51e-05 ± 1.5e-06 | 3660 ± 1000 |  |  |  |  | 
G13U U56A | 0.0005 ± 2.3e-05 | 1880 ± 150 | 0.000124 ± 1.6e-05 | 0.000287 ± 3.6e-05 | 0.000422 ± 8.8e-05 |  | 4.35e-05 ± 1.3e-05
G13U U65A | 0.000112 ± 6.4e-06 | 1260 ± 270 |  | 7.82e-05 ± 1.7e-05 | 9.77e-05 ± 1.8e-05 |  | 
A14C G29A A53U G59A C68U | < 1e-05 |  |  |  |  |  | 
A14G G32C A53U | 0.000218 ± 7.2e-05 |  | 4.08e-05 ± 2e-05 | 6.01e-05 ± 1.8e-05 | 0.000144 ± 2.8e-05 |  | 
A14G U49A | 3.99e-05 ± 1e-06 | 773 ± 130 |  |  | 3.67e-05 ± 1.2e-05 |  | 
